Two molecules from patent publication US20250282881A1 (SHANGHAI EPIMAB BIOTHERAPEUTICS, published 2025) can be followed below.

Assay [1] deals with T1, recombinant human PD-L1/His fusion protein (Novoprotein, Cat. No. C315) (human, UniProt Q9NZQ7 19-239).
T1 construct: also called recombinant human PD-L1-his protein
The experiment in a line: BLI (Octet RED96), antibody on AHC sensor, PD-L1/His as analyte, test group 2 (the reference itself). The text has this: (§1) Based on titer and purity, 10 of the 50 humanized antibodies were selected and further assayed in two groups for dissociation rate constant (koff) as shown in Table 7. Chimeric antibody EM0005-86c having VH/VL sequences identical to EM0005-mAb86 (as provided in Table 6) was used as a positive control in each group and served as a basis for normalization. Briefly, antibodies were characterized for affinities and binding kinetics by Octet® RED96 biolayer interferometry (Pall FortéBio LLC). Anti-hIgG Fc Capture (AHC) Biosensors (Pall) with antibody captured at a concentration of 100 nM for 120 seconds were dipped into running buffer (1× pH 7.2 PBS, 0.05% Tween 20, 0.1% BSA) for 60 seconds to check the baseline, then dipped into a single concentration of recombinant human PD-L1/His fusion protein (Novoprotein, Cat. No. C315) to measure binding for 200 seconds, followed by dipped into running buffer to measure dissociation for 600 seconds. The association and dissociation curves were fitted to a 1:1 Langmuir binding model using FortéBio Data Analysis software (Pall). The off-rate ratios shown in Table 7 were calculated by off-rate of a humanized antibody to that of EM0005-86c in the same test group. The off-rate ratio serves as a normalized index, so that the humanized antibodies can be compared to one another across test groups. […]
On the technique in general: BLI is a label-free optical method that tracks binding on a fibre tip over time.

Assay [2] addresses T1, recombinant human PD-L1/His fusion …. The experiment in a line: BLI (Octet RED96), antibody on AHC sensor, PD-L1/His as analyte, test group 1. The text has this: Based on titer and purity, 10 of the 50 humanized antibodies were selected and further assayed in two groups for dissociation rate constant (koff) as shown in Table 7. Chimeric antibody EM0005-86c having VH/VL sequences identical to EM0005-mAb86 (as provided in Table 6) was used as a positive control in each group and served as a basis for normalization. Briefly, antibodies were characterized for affinities and binding kinetics by Octet® RED96 biolayer interferometry (Pall FortéBio LLC). Anti-hIgG Fc Capture (AHC) Biosensors (Pall) with antibody captured at a concentration of 100 nM for 120 seconds were dipped into running buffer (1× pH 7.2 PBS, 0.05% Tween 20, 0.1% BSA) for 60 seconds to check the baseline, then dipped into a single concentration of recombinant human PD-L1/His fusion protein (Novoprotein, Cat. No. C315) to measure binding for 200 seconds, followed by dipped into running buffer to measure dissociation for 600 seconds. The association and dissociation curves were fitted to a 1:1 Langmuir binding model using FortéBio Data Analysis software (Pall). The off-rate ratios shown in Table 7 were calculated by off-rate of a humanized antibody to that of EM0005-86c in the same test group. The off-rate ratio serves as a normalized index, so that the humanized antibodies can be compared to one another across test groups. The lower off-rate ratio indicates higher affinity of an antibody for human PD-L1. HuEM0005-86-21 was selected for further investigation based on the purity and off-rate data.

For assay [3] the target is unchanged. The experiment in a line: BLI (Octet RED96), antibody on AHC sensor, PD-L1/His as analyte, test group 2.
Text: as §1

For assay [4] the target is unchanged. The experiment in a line: BLI (Octet RED96), antibody on AHC sensor, PD-L1/His as analyte, test group 1 (the reference itself).
Text: as §1

Assay [5] concerns the target T2, recombinant human OX40/His fusion protein (Novoprotein, CB17) (human, UniProt P43489 29-216).
T2 construct: Bought protein
T2 sequence: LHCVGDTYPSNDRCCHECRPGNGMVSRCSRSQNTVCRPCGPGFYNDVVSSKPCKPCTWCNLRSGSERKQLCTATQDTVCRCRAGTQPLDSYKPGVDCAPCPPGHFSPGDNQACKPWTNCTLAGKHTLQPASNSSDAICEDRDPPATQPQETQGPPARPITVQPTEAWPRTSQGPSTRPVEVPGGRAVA
The experiment in a line: BLI (Octet RED96), antibody on AHC sensor, OX40/His as analyte, test group 2. Here is the method: (§2) All 17 antibodies in Table 4 were expressed by transient transfection of HEK293 cell, purified by Protein A chromatography, and assayed for and ranked by dissociation rate constant (koff). Briefly, antibodies binding affinities and kinetics were characterized by Octet® RED96 biolayer interferometry (Pall FortéBio LLC). Antibodies were captured by Anti-hIgG Fc Capture (AHC) Biosensors (Pall) at a concentration of 100 nM for 120 seconds. After that, sensors were dipped into running buffer (1× pH 7.2 PBS, 0.05% Tween 20, 0.1% BSA) for 60 seconds to check the baseline, then dipped into recombinant human OX40/His fusion protein (Novoprotein, CB17) at assigned concentration for 200 seconds to measure binding, followed by dipped into running buffer for 600 seconds for dissociation. The assay was conducted in four test groups (as listed in Table 5) all containing the EM1007-044c chimeric antibody as the basis for normalization. The association and dissociation curves were fitted to a 1:1 Langmuir binding model using ForteBio Data Analysis software (Pall) to obtain the off-rate constants as shown in Table 5 below. The off-rate of each antibody was compared to that of the EM1007-mAb044c chimeric antibody in the same test group obtained in parallel to produce the corresponding off-rate ratio, serving as a normalized index. The normalized index of an antibody indicates higher affinity for human OX40.

The target in assay [6] is T2, recombinant human OX40/His fusion …. The experiment in a line: BLI (Octet RED96), antibody on AHC sensor, OX40/His as analyte, test group 1. On the procedure: as §2
For assay [7] the target is unchanged. The experiment in a line: BLI (Octet RED96), antibody on AHC sensor, OX40/His as analyte, test group 3. On the procedure:
as §2

Assay [8] shares this target. The experiment in a line: BLI (Octet RED96), antibody on AHC sensor, OX40/His as analyte, test group 2 (the reference itself). On the procedure: as §2, with “The normalized index of an antibody indicates higher affinity for human OX40.” left out
Assay [9] has the same target. The experiment in a line: BLI (Octet RED96), antibody on AHC sensor, OX40/His as analyte, test group 3 (the reference itself). On the procedure: as §2, with “The normalized index of an antibody indicates higher affinity for human OX40.” left out
Assay [10] shares this target. The experiment in a line: BLI (Octet RED96), antibody on AHC sensor, OX40/His as analyte, test group 4 (the reference itself). Here is the method:
as §2, with “The normalized index of an antibody indicates higher affinity for human OX40.” left out

Assay [11] shares this target. The experiment in a line: BLI (Octet RED96), antibody on AHC sensor, OX40/His as analyte, test group 1 (the reference itself). Here is the method:
as §2, with “The normalized index of an antibody indicates higher affinity for human OX40.” left out

For assay [12] the target is unchanged. The experiment in a line: BLI (Octet RED96), antibody on AHC sensor, OX40/His as analyte, test group 4. On the procedure: as §2
Assay [13] concerns the target T3, human OX40 on cells (CHO-K1-hOX40, CHO-OX40, Jurkat-OX40 reporter cells) (human, UniProt P43489 29-277).
T3 construct: also called human OX40-transfected CHO cell; CD134
T3 sequence: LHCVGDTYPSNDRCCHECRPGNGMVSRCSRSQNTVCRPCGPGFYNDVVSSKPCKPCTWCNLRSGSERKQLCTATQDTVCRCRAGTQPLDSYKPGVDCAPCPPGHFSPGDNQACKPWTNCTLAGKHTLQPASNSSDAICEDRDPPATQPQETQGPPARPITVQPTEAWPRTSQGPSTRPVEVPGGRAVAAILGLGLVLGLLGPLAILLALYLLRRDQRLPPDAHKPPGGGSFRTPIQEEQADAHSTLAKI
The experiment in a line: FACS on CHO-K1-hOX40 cells. On the procedure:
(§3) The purified chimeric antibody was designated EM1007-44c. Binding activity to human or Cyno OX40 on the cell surface was assessed by FACS. Briefly, 5×10⁵ cells were seeded into each well of a 96-well plate (Corning, #3799). Cells were centrifuged at 400 g for 5 minutes and supernatants were discarded. For each well, 100 μl of 3× serial dilution of antibody starting from 100 nM was then added and mixed with the cells. After 60 minutes of 4° C. incubation, plates were washed to remove excess antibody. […] After another round of centrifugation and washing, cells were resuspended in FACS buffer for reading on a CytoFLEX Flow Cytometer (Beckman Coulter). Median Fluorescence Intensity (MFI) readouts were plotted against antibody concentration and analyzed with GraphPad Prism 8.0. The ability of OX40 to activate downstream signaling was detected in a Jurkat-OX40-NF-κB luciferase assay. Briefly, high binding plates (Corning, #3361) were coated with 3× serial dilution of EM1007-44c starting from 100 nM at 4° C. overnight, washed, then seeded with 1×10⁵ cells per well of OX40-NF-κB reporter and incubate at 37° C. for 6 hours. At the end of incubation, ONE-Glo™ luminescence assay kit (Promega, Cat. #E6130) reagents were prepared and added according to the manufacturer's instructions. Plates were read for luminescence signals on Varioskan™ LUX microplate reader (ThermoFisher Scientific).

The target in assay [14] is T3, human OX40 on cells (CHO-K1-hOX40, …). The experiment in a line: cell-based or functional assay.
The target of assay [15] is T4, cyno OX40 on cells (CHO-K1-cOX40) (cyno).
T4 construct: whole, on cells; also called Cyno OX40 on the cell surface
The experiment in a line: FACS on CHO-K1-cOX40 cells. On the procedure:
as §3

T1 sequence (Q9NZQ7 19-239 limits assumed): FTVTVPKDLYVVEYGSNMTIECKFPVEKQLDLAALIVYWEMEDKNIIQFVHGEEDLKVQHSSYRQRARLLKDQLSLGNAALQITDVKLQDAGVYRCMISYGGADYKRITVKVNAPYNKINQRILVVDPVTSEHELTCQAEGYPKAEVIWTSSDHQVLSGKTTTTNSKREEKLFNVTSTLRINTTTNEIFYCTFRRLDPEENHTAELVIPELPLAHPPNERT

B1: EM0005-86c (antibody, V domains shown)
VH: QVQLQQSGAELVRPGSSVKMSCKTSGYTFTTYGINWVKQRPGQGLEWIGYIYIGNGYTEYNEKFKGKATLTSDPSSRTAYMQLSSLTSEDSAIYFCARDLMVIAPKTMDYWGQGTSVTVSS
VL: DIQMNQSHKFMSTSVGDRVSITCKASQDVGTAVAWYQQKPGQSPKLLIYWASTRHTGVPDRFTGGGSGTDFTLTISNVQSEDLADYFCQQYSSYPYTFGGGTKLEMK
notes: Chimeric anti-PD-L1; captured on anti-human IgG Fc sensors
For B1, the “Off-Rate Ratio to EM0005-86c” value in assay [1] and in [4] was 100% in each case. Moreover, the koff in assay [2] turned out to be 0.000272 s⁻¹; in assay [3] it was 0.000146 s⁻¹.

B2: EM1007-44c (antibody, human IgG1, V domains shown)
VH: QVQLQQSGPELVKPGASVTISCKASGHAFSSSWMNWVKQRPGKGLEWIGRIYPGDEITNYNGKFKDKATLTADKSSSTAYMQLSSLTFEDSAVYFCARDLLMPYWGQGTLVTVSA
VL: DIVMTQTAFSNPVTLGTSASISCRSSKSLLYSNGITYLYWYLQKPGQSPHLLIYQMSNLAPGVPDRFSSSGSGTDFTLRISRVEAEDVGIYYCAQNLELPFTFGSGTKLEIK
notes: also called EM1007-mAb044c; EM1007-044c
Turning to B2, the koff in assay [5] came to 0.000318 s⁻¹; in assay [6] it was 0.000336 s⁻¹; in [7] it was 0.000305 s⁻¹; in assay [12], 0.000279 s⁻¹. Besides, the “Normalized Index (off-rate ratio to EM1007-mAb044c)” value in [8], in assay [9], in [10] and in assay [11] was 100% in each case. Moreover, the EC50 was found to be 2.6 nM in assay [13] and 2.11 nM in assay [15]. Besides, in [14], the “OX40-Jurkat-NF-κB-Reporter, EC50” value is 0.43 nM. Besides, in assay [14], the “OX40-Jurkat-NF-κB-Reporter, Maximal fold change” value stood at 1.52 fold.

One may read the koff as the first-order rate constant of dissociation. What is called EC50 is the concentration that produces a half-maximal response. A higher EC50 goes with a less potent agent.
